Earlier results in paper PMC3321547 (Biochemistry, 2009).

Test system: DKH960
Conditions: folded DKH960, ref [6]

B1: DKH960: folded kinesin heavy chain construct (protein, UniProt P17210 1-960, looked up, fragment)
chain: MSAEREIPAEDSIKVVCRFRPLNDSEEKAGSKFVVKFPNNVEENCISIAGKVYLFDKVFKPNASQEKVYNEAAKSIVTDVLAGYNGTIFAYGQTSSGKTHTMEGVIGDSVKQGIIPRIVNDIFNHIYAMEVNLEFHIKVSYYEIYMDKIRDLLDVSKVNLSVHEDKNRVPYVKGATERFVSSPEDVFEVIEEGKSNRHIAVTNMNEHSSRSHSVFLINVKQENLENQKKLSGKLYLVDLAGSEKVSKTGAEGTVLDEAKNINKSLSALGNVISALADGNKTHIPYRDSKLTRILQESLGGNARTTIVICCSPASFNESETKSTLDFGRRAKTVKNVVCVNEELTAEEWKRRYEKEKEKNARLKGKVEKLEIELARWRAGETVKAEEQINMEDLMEASTPNLEVEAAQTAAAEAALAAQRTALANMSASVAVNEQARLATECERLYQQLDDKDEEINQQSQYAEQLKEQVMEQEELIANARREYETLQSEMARIQQENESAKEEVKEVLQALEELAVNYDQKSQEIDNKNKDIDALNEELQQKQSVFNAASTELQQLKDMSSHQKKRITEMLTNLLRDLGEVGQAIAPGESSIDLKMSALAGTDASKVEEDFTMARLFISKMKTEAKNIAQRCSNMETQQADSNKKISEYEKDLGEYRLLISQHEARMKSLQESMREAENKKRTLEEQIDSLREECAKLKAAEHVSAVNAEEKQRAEELRSMFDSQMDELREAHTRQVSELRDEIAAKQHEMDEMKDVHQKLLLAHQQMTADYEKVRQEDAEKSSELQNIILTNERREQARKDLKGLEDTVAKELQTLHNLRKLFVQDLQQRIRKNVVNEESEEDGGSLAQKQKISFLENNLDQLTKVHKQLVRDNADLRCELPKLEKRLRCTMERVKALETALKEAKEGAMRDRKRYQYEVDRIKEAVRQKHLGRRGPQAQIAKPIRSGQGAIAIRGGGA
  maximum extent of inhibition of ADP release: over 50%
